Results published in publication PMC3502260, “Plasmodium serine hydroxymethyltransferase as a potential anti-malarial target: inhibition studies using improved methods for enzyme production and assay” (Malaria Journal, 2012).

Columns and labels:
[1] = substrate: Nc1nc2c(c(=O)[nH]1)N[C@@H](CNc1ccc(C(=O)N[C@@H](CCC(=O)O)C(=O)O)cc1)CN2; assay: purified protein; type: biochemical, Plasmodium vivax; conditions: apparent, 2 mM L-serine fixed, 25 °C, 50 mM HEPES pH 7, aerobic
[2] = substrate: N[C@@H](CO)C(=O)O; assay: purified protein; type: biochemical, Plasmodium vivax; conditions: apparent, 0.4 mM THF fixed, 25 °C, 50 mM HEPES pH 7, aerobic

B1: PvSHMT (Plasmodium vivax Sal-1) (protein)
chain: MFNNEPLEQIDKELHDILADEEKRQRETINLIASENLTNGAVRECLGNRVSNKYSEGYPKKRYYGGNDFIDKIEELCQKRALEAFNVSDEEWGVNVQPLSGSAANVQALYALVGVKGKIMGMHLCSGGHLTHGFFDEKKKVSITSDMFESKLYKCNSQGYVDLDAVREMALSFKPKVIICGYTSYPRDIDYQQFRQICDEVNAYLFADISHISSFVACNILNNPFLHADVVTTTTHKILRGPRSALIFFNKKRNPGIEQKINSAVFPSFQGGPHNNKIAAVACQLKEVHSPAFKEYTQQVLLNSKALAKALISKQIDLVTNGTDNHLIVVDLRKFSITGSKLQETCNAINVSLNKNTIPSDVDCVSPSGVRIGTPAMTTRGAKEKDMEFIADVLARAIKITVDLQEQYGKKLVDFKKGLPGNAQLQQLKQEVVTWAGALPFP
notes: recombinant, expressed in E. coli BL21(DE3) as in an earlier report; dimer
Protein B1 has a Km [1] of 90 ± 20 µM, a kcat [1] of 1.26 ± 0.13 s⁻¹ and a Km [2] of 190 ± 20 µM. It also gave a kcat [2] of 1.26 ± 0.13 s⁻¹.
